For data set [1], the target named is c-Src SH2. The data set can be described thus: SH2 binding enrichment of the phosphorylated peptide, bacterial display (enrichment ratio); higher = better substrate or ligand; peptides without Tyr show the background.
For data set [2], the target named is SHP2-C SH2. The description is as above.
The target of data set [3] is Grb2 SH2 (UniProt P62993). The description is as above.
Data set [4] addresses EPHB1 (UniProt P54762). The data set can be described thus: phosphorylation enrichment, bacterial display (enrichment ratio); higher = better substrate or ligand; peptides without Tyr show the background.
The target of data set [5] is FGFR1 (UniProt P11362). The description is as above.
Data set [6] concerns the target FGFR3 (UniProt P22607). The data set is described as above.
For data set [7], the system named is c-Src. Described as above.
Data set [8] concerns c-Abl (mouse). The description is as above.
Data set [9] deals with EPHB2 (UniProt P29323). The description is as above.
In data set [10] the target is Fyn (UniProt P06241). Described as above.
Fyn, sequence (P06241 whole entry, looked up): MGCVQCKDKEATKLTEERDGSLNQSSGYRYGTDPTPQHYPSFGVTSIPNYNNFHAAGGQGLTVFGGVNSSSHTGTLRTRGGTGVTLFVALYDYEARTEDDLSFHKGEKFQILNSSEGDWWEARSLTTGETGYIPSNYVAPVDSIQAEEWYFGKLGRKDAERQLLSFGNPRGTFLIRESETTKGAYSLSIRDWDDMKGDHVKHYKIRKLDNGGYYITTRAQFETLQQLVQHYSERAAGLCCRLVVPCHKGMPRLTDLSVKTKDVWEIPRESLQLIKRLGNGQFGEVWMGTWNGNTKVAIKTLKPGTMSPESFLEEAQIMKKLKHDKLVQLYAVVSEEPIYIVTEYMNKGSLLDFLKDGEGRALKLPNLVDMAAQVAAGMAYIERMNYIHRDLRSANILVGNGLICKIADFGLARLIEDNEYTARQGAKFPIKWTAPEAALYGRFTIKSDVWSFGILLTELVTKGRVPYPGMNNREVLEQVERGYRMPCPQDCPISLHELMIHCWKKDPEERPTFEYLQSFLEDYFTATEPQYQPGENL
Data set [11] concerns Fer (mouse). The data set is described as above.
In data set [12] the target is Jak2 (UniProt O60674). The data set is described as above.
Jak2, sequence (O60674 whole entry, looked up): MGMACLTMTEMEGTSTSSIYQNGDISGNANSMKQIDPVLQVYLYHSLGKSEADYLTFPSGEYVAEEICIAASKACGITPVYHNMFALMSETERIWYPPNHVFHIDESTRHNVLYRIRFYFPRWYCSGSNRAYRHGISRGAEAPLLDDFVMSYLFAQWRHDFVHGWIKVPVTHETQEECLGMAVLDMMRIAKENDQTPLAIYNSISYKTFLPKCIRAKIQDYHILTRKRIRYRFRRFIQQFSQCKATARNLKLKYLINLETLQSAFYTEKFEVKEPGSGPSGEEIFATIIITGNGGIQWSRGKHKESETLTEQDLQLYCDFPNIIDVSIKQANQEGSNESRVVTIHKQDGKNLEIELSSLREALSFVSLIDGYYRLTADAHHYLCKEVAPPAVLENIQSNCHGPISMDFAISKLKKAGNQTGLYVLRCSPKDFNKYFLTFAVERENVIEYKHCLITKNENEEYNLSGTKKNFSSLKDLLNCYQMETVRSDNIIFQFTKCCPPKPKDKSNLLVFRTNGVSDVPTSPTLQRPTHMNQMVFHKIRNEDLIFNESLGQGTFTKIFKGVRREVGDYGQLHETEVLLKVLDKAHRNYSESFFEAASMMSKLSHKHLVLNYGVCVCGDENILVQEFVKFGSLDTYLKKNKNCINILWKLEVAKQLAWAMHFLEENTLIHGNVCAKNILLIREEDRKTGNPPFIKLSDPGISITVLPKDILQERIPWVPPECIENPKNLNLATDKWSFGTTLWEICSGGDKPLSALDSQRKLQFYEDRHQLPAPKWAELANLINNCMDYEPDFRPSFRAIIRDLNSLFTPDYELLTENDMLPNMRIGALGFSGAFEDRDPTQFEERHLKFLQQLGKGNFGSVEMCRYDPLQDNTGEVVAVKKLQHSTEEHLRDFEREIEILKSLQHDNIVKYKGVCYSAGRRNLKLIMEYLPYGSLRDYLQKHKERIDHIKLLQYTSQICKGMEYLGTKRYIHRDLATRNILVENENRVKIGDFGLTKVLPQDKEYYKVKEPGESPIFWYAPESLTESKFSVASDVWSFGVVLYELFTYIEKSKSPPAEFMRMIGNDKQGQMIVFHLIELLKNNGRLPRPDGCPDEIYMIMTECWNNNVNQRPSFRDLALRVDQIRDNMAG
The target in data set [13] is MERTK (UniProt Q12866). The data set is described as above.
MERTK, sequence (Q12866 whole entry, looked up): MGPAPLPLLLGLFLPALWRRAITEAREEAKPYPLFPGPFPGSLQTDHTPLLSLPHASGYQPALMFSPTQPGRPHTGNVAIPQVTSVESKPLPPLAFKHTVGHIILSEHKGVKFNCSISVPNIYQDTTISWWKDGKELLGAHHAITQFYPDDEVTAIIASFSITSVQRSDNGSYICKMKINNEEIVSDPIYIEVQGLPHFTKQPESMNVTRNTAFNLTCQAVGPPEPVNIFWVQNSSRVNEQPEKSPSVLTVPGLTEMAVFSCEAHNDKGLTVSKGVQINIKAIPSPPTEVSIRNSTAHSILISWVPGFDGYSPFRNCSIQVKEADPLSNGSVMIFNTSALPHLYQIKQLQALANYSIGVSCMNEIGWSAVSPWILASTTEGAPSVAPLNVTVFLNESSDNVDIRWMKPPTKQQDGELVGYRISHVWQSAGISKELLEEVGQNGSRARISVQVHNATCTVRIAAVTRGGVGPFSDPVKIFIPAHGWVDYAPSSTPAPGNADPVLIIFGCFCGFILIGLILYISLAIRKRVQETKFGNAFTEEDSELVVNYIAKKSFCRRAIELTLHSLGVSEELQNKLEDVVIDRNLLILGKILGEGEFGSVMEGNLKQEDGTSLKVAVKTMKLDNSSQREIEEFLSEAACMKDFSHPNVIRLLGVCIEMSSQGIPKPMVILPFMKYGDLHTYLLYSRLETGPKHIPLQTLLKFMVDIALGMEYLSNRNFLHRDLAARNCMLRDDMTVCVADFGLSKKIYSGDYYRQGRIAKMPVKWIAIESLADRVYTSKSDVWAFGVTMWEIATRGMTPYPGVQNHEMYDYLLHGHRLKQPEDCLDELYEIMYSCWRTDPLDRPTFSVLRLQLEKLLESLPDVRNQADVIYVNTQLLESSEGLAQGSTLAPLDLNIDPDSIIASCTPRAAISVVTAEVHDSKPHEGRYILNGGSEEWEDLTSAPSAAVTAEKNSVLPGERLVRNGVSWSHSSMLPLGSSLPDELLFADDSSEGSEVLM
Data set [14] deals with AncSZ. Described as above.
The target in data set [15] is Hck (UniProt P08631). The data set is described as above.
Hck, sequence (P08631 whole entry, looked up): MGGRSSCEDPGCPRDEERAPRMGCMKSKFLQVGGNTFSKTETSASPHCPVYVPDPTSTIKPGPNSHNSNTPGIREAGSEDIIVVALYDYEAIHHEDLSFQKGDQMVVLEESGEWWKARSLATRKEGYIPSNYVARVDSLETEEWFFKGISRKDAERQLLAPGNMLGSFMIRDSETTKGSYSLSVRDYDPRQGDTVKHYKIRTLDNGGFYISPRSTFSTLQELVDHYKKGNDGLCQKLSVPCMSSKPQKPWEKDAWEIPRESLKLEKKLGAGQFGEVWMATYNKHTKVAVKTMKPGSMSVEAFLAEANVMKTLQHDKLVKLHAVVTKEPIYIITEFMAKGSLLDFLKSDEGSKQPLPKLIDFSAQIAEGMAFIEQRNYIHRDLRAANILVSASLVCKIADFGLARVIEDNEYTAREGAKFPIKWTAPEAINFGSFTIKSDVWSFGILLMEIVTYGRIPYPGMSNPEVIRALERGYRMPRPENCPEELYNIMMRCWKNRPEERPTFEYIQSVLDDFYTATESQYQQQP
The target in data set [16] is Fes (UniProt P07332). Described as above.
Fes, sequence (P07332 whole entry, looked up, the tested form may be a part): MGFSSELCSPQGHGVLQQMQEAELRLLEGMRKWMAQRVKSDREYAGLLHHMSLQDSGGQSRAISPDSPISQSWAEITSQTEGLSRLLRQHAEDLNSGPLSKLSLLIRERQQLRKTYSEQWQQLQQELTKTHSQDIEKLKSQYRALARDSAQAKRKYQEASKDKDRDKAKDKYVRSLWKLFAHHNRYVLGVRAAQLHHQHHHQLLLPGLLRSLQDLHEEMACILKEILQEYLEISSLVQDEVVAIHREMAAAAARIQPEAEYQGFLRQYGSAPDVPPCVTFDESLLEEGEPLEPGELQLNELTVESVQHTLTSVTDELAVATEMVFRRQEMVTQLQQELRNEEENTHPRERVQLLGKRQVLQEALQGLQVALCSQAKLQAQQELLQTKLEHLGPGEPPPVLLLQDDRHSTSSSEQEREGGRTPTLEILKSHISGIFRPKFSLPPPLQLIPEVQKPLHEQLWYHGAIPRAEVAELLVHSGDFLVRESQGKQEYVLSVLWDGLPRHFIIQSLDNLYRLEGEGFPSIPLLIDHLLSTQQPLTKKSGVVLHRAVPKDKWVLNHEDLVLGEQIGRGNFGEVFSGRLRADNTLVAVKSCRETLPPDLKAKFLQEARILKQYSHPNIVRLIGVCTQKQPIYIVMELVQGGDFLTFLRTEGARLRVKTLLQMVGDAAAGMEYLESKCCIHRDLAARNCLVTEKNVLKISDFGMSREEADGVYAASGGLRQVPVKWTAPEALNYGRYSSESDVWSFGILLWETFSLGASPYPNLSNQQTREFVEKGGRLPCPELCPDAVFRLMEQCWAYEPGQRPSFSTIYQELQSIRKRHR
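For SH2 binding enrichment of the phosphorylated peptide, bacterial display in this document: peptide library displayed on the E. coli surface as eCPX fusions, selected cells deep-sequenced, score is each peptide's frequency after selection divided by its frequency in the input.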
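For phosphorylation enrichment, bacterial display in this document: 11-residue human phosphosite peptides and single-mutation variants displayed on the E. coli surface, counted by deep sequencing, each peptide's frequency after selection divided by its frequency in the unselected input library; frequency after pTyr selection over input frequency; kinase dosed for 20-30% of maximal phosphorylation in three min.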

FGFR3, sequence (P22607 whole entry, looked up): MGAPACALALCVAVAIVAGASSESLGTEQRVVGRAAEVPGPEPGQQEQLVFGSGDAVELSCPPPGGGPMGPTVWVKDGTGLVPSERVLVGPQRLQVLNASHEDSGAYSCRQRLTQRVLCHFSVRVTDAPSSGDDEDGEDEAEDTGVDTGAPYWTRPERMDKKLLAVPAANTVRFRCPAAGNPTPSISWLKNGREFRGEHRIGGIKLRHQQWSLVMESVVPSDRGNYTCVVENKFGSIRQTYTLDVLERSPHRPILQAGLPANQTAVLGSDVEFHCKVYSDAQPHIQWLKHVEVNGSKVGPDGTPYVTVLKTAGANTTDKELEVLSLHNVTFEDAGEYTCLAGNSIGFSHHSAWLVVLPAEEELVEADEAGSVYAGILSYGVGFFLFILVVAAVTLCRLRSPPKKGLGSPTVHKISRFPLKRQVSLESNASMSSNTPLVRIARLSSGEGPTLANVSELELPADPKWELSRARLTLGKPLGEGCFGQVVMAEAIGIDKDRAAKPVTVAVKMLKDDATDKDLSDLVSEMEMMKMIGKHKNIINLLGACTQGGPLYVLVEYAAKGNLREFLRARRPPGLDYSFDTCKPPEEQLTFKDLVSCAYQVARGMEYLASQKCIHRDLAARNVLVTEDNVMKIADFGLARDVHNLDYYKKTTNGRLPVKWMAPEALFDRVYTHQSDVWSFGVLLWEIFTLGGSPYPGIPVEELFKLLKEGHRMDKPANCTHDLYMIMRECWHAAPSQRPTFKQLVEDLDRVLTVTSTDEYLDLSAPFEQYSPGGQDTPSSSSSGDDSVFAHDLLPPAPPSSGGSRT
Grb2 SH2, sequence (P62993 whole entry, looked up): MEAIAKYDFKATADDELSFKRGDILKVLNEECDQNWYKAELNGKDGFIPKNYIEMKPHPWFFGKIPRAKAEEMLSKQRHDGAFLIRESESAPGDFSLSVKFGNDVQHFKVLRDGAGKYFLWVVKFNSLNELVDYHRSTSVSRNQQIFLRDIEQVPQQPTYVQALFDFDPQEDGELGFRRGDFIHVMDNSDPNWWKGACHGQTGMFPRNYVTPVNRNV

Consider RIAFQYGVTDL [MYBPC3_Y340], for which the SH2 binding enrichment in data set [1] is 0.535; in [2] it was 0.815; in [3], 0.93. Also, the phosphorylation enrichment in data set [4] was found to be 0.709; in data set [5] it was 0.45; in [6], 1.08; in [7], 0.879; in [8], 0.992; in data set [9], 0.627. Moreover, the phosphorylation enrichment in data set [10] worked out at 0.522; in data set [11], 0.558; in [12], 1.47; in data set [13], 0.514; in data set [14], 1.41; in data set [15], 0.647. The phosphorylation enrichment in data set [16] is 1.28.
With RIDPDYMGRVR [IGSF9_Y81_V82M], the results for the SH2 binding enrichment in [1], in [2] and in [3] were 0.577, 0.629 and 1.03, respectively. Besides, the phosphorylation enrichment was 0.35 in data set [4]; 0.344 in data set [5]; 0.656 in data set [6]; 0.466 in data set [7]; 0.585 in data set [8]; 0.367 in data set [9]. The phosphorylation enrichment was 0.487 in [10]; 0.4 in data set [11]; 0.643 in [12]; 0.442 in data set [13]; 0.649 in data set [14]; 0.369 in [15]. Also, in data set [16], the phosphorylation enrichment was 0.572.
RIFDFYSARKT [STOX1_Y858_A863T_YF]: the SH2 binding enrichment in [1] was 0.517; in [2], 0.907; in data set [3] it was 0.977. Further, the phosphorylation enrichment in data set [4] came out at 0.467; in data set [5], 0.519; in data set [6], 0.496; in [7], 0.624; in data set [8], 0.491; in [9] it was 0.553. The phosphorylation enrichment worked out at 0.485 in data set [10]; 0.311 in data set [11]; 0.417 in data set [12]; 0.595 in data set [13]; 0.715 in [14]; 1.37 in data set [15]. Besides, the phosphorylation enrichment in data set [16] is 0.833.
Take RIFDYYSARKA [STOX1_Y858]: the SH2 binding enrichment in data set [1] came to 0.469; in data set [2], 0.648; in [3] it was 1.48. The phosphorylation enrichment turned out to be 0.499 in data set [4]; 0.614 in [5]; 0.612 in data set [6]; 1.1 in data set [7]; 1.08 in data set [8]; 0.656 in data set [9]. For the same sequence, the phosphorylation enrichment amounted to 0.713 in [10]; 0.7 in data set [11]; 1.16 in data set [12]; 0.582 in data set [13]; 0.959 in data set [14]; 0.792 in data set [15]. In addition, in data set [16], the phosphorylation enrichment was 1.28.
As to RKGGSYSQAAS [HLA-A_Y344_T345S], the figures for the SH2 binding enrichment in [1], in data set [2] and in data set [3] were 0.542, 0.836 and 0.95, respectively. Further, the phosphorylation enrichment came to 0.498 in data set [4]; 0.523 in [5]; 0.567 in data set [6]; 0.741 in data set [7]; 0.738 in data set [8]; 0.491 in [9]. Moreover, the phosphorylation enrichment amounted to 0.537 in data set [10]; 0.294 in data set [11]; 0.401 in [12]; 0.656 in data set [13]; 0.599 in [14]; 0.38 in [15]. For the same sequence, in data set [16], the phosphorylation enrichment came out at 0.625.
As to RKPDIYERLAS [MCM4_Y459], the figures for the SH2 binding enrichment in data set [1], in [2] and in data set [3] were 0.643, 0.71 and 0.734, respectively. Moreover, the phosphorylation enrichment in [4] was 0.927; in [5] it was 0.671; in data set [6] it was 0.798; in [7], 2.04; in data set [8], 0.901; in [9] it was 0.903. The phosphorylation enrichment in data set [10] came out at 0.99; in [11], 0.943; in data set [12], 0.702; in data set [13] it was 1.65; in data set [14], 0.846; in data set [15], 4.52. In data set [16], the phosphorylation enrichment came to 1.2.
As for RLEGVYGNNID [PTEN_Y46_R47G], the SH2 binding enrichment in data set [1] amounted to 0.408; in data set [2], 0.444; in data set [3] it was 0.713. Besides, the phosphorylation enrichment was determined as 0.452 in data set [4]; 0.485 in [5]; 0.381 in [6]; 1.26 in [7]; 0.384 in [8]; 0.311 in [9]. Also, the phosphorylation enrichment amounted to 1.57 in [10]; 0.621 in data set [11]; 0.557 in [12]; 0.657 in data set [13]; 0.404 in data set [14]; 0.94 in data set [15]. Moreover, in data set [16], the phosphorylation enrichment came to 0.603.
With RLGLQYSQGLV [EIF2B4_Y214], the SH2 binding enrichment in [1] was determined as 0.452; in data set [2], 0.553; in [3], 0.955. Further, the phosphorylation enrichment in data set [4] stood at 0.676; in [5], 0.853; in [6] it was 0.851; in data set [7], 0.683; in [8], 1.16; in data set [9], 0.725. Further, the phosphorylation enrichment came out at 0.732 in data set [10]; 0.654 in [11]; 1.19 in data set [12]; 0.365 in data set [13]; 0.876 in data set [14]; 0.588 in data set [15]. Besides, in data set [16], the phosphorylation enrichment was 1.31.
RLLVVYPWTKR [HBB_Y36_Q40K]: the SH2 binding enrichment in data set [1] stood at 0.447; in data set [2], 0.812; in [3], 0.951. The phosphorylation enrichment was 0.418 in [4]; 0.694 in data set [5]; 0.613 in [6]; 0.583 in [7]; 0.602 in data set [8]; 0.678 in [9]. Moreover, the phosphorylation enrichment amounted to 0.485 in [10]; 0.45 in data set [11]; 0.475 in data set [12]; 0.612 in data set [13]; 0.735 in [14]; 0.547 in [15]. In data set [16], the phosphorylation enrichment is 0.829.
